5 compounds from article PMC10053787, “A New Gene SCY3 Homologous to Scygonadin Showing Antibacterial Activity and a Potential Role in the Sperm Acrosome Reaction of Scylla paramamosain” (International Journal of Molecular Sciences, 2023) can be followed below.

For one assay, the target named is T1, rSCY3 (Scylla paramamosain, UniProt A0AAW0UC28).
T1 construct: gene O3P69_004699; precursor printed as 124 aa; biotinylated for BLI
T1 sequence (A0AAW0UC28 11-110): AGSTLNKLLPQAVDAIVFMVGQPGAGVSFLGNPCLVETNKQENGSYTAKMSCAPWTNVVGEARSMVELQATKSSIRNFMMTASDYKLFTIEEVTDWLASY
Kind of assay: biolayer interferometry (Octet). The format is binding. The note with it: biotinylated protein on Super Streptavidin sensor; progesterone 0.125-4 mM; phosphate-saline buffer pH 7.4, 0.02% Tween 20; room temperature. For orientation: Biolayer interferometry detects binding as a change in optical thickness at a sensor tip.

Another assay has as its target T2, rSCY4.
T2 construct: gene SCY4; biotinylated for BLI
Description: biolayer interferometry (Octet). The format is binding, Scylla paramamosain. The note with it: biotinylated protein on Super Streptavidin sensor; progesterone 0.125-4 mM; phosphate-saline buffer pH 7.4, 0.02% Tween 20; room temperature.

In a further assay the target is T3, rSCY5.
T3 construct: gene SCY5; biotinylated for BLI
Kind of assay: biolayer interferometry (Octet). Type of assay: binding, Scylla paramamosain. The note with it: biotinylated protein on Super Streptavidin sensor; progesterone 0.125-4 mM; phosphate-saline buffer pH 7.4, 0.02% Tween 20; room temperature.

The target in assay [1] is Recombinant His-tagged SCY1 (Scylla paramamosain). Kind of assay: SPR; Biacore T200, CM5 chip; rSCY1-4 immobilised (~200 resonance units), blank or rTrx reference cell; rSCY1-5 diluted in PBS and injected (28.8 to 0.45 µM), multiple cycle kinetics, 25 °C, 120-s association and 120-s dissociation.
Assay [2] deals with Recombinant His-tagged SCY2 (Scylla paramamosain). The description is as above.

Broadly, the Kd is the free concentration of one partner at which half of the binding sites on the other are occupied at equilibrium, for simple one-to-one binding. As to `CC(=O)[C@H]1CC[C@H]2[C@@H]3CCC4=CC(=O)CC[C@]4(C)[C@H]3CC[C@]12C` [progesterone], the dissociation constant Kd came out at 30800 µM at rSCY3, 2280 µM on rSCY4 and 25300 µM at rSCY5.
With “Recombinant His-tagged SCY2 (natural protein)”, the Kd in assay [1] worked out at 11.3 µM.
Turning to “Recombinant His-tagged SCY3 (natural protein)”, the Kd in assay [1] is 4.12 µM; in assay [2], 0.62 µM.
For “Recombinant His-tagged SCY4 (natural protein)”, in that order: 6.86 µM and 14 µM.
Turning to “Recombinant Trx-tagged SCY5 (natural protein)”, the equilibrium dissociation constant (Kd) is 0.14 µM in assay [1] and 0.15 µM in assay [2].
